The target in data set [1] is GST-TSC2 fragment 1 (amino acids 910-1112) (UniProt P49816).
Data set [2] has as its target GST-TSC2 fragment 2 (amino acids 1357-1765) (UniProt P49816).
Data set [3] addresses TSC2 fragment containing S1345 (UniProt P49816).
Data set [4] concerns the target purified TSC2-F2 fragment (AMPK assay, contains T1227) (UniProt P49816).

For the substance GST-Akt (wild type), the “in vitro phosphorylation by purified kinase” value in data set [1] was “Wild-type Akt, but not the kinase-inactive Akt-KM mutant, efficiently phosphorylated both fragment 1 and fragment 2 of TSC2 in vitro”; in data set [2] it was “Wild-type Akt, but not the kinase-inactive Akt-KM mutant, efficiently phosphorylated both fragment 1 and fragment 2 of TSC2 in vitro”.

With “immunoprecipitated AMPK (in vitro kinase assay)”, the “in vitro phosphorylation by immunoprecipitated kinase” value in data set [3] is “The TSC2 fragment was phosphorylated by immunoprecipitated AMPK, but not the kinase inactive AMPK mutant”; in data set [4], “In vitro phosphorylation of the purified TSC2-F2 fragment by immunoprecipitated AMPK showed that AMPK specifically phosphorylates TSC2 on T1227”.

Source of the values: US20080199896.
